Test results taken from patent US20110195900A1, “PEPTIDIC PTH RECEPTOR AGONISTS” (FERRING B.V., priority 2008, published 2011).
Read-outs that look alike come from different tables or passages of the source. Non-standard residues stand in square brackets, D forms with d. Residues, ends and D or L forms follow the SMILES beside them. No end group written: not given here. 1Nal = N[C@@H](Cc1cccc2ccccc12)C(=O)O; 2Nal = N[C@@H](Cc1ccc2ccccc2c1)C(=O)O; β3hI = CC[C@H](C)[C@H](N)CC(=O)O; β3hR = N=C(N)NCCC[C@H](N)CC(=O)O; Nle = CCCC[C@H](N)C(=O)O; β3hA = C[C@H](N)CC(=O)O; Aib = CC(C)(N)C(=O)O; βAla = NCCC(=O)O

B1: [Nle^8, β-hIle^18, 1-Nal^23, Leu^27] hPTH-(1-31)-NH2 (peptide)
peptide: SVSEIQL[Nle]HNLGKHLNS[β3hI]ERVE[1Nal]LRKLLQDV-NH2
B2: [Aib^1, Nle^8, β-hIle^18, 1-Nal^23, Leu^27] hPTH (1-31)-NH2 (peptide)
peptide: [Aib]VSEIQL[Nle]HNLGKHLNS[β3hI]ERVE[1Nal]LRKLLQDV-NH2
B3: [Nle^8,18, β-Ala^19, 1-Nal^23] hPTH (1-34)-NH2 (peptide)
peptide: SVSEIQL[Nle]HNLGKHLNS[Nle][βAla]RVE[1Nal]LRKKLQDVHNF-NH2
modifications: N-terminus assumed
SMILES: CCCC[C@H](NC(=O)[C@H](CO)NC(=O)[C@H](CC(N)=O)NC(=O)[C@H](CC(C)C)NC(=O)[C@H](Cc1c[nH]cn1)NC(=O)[C@H](CCCCN)NC(=O)CNC(=O)[C@H](CC(C)C)NC(=O)[C@H](CC(N)=O)NC(=O)[C@H](Cc1c[nH]cn1)NC(=O)[C@H](CCCC)NC(=O)[C@H](CC(C)C)NC(=O)[C@H](CCC(N)=O)NC(=O)[C@@H](NC(=O)[C@H](CCC(=O)O)NC(=O)[C@H](CO)NC(=O)[C@@H](NC(=O)[C@@H](N)CO)C(C)C)[C@@H](C)CC)C(=O)NCCC(=O)N[C@@H](CCCNC(=N)N)C(=O)N[C@H](C(=O)N[C@@H](CCC(=O)O)C(=O)N[C@@H](Cc1cccc2ccccc12)C(=O)N[C@@H](CC(C)C)C(=O)N[C@@H](CCCNC(=N)N)C(=O)N[C@@H](CCCCN)C(=O)N[C@@H](CCCCN)C(=O)N[C@@H](CC(C)C)C(=O)N[C@@H](CCC(N)=O)C(=O)N[C@@H](CC(=O)O)C(=O)N[C@H](C(=O)N[C@@H](Cc1c[nH]cn1)C(=O)N[C@@H](CC(N)=O)C(=O)N[C@@H](Cc1ccccc1)C(N)=O)C(C)C)C(C)C
B4: [Aib^1, Nle^8, Glu^10, Lys^16, β-hIle^18, 1-Nal^23, Leu^27, Glu^30, Glu^33, Lys^34] hPTH(1-34)-NH2 (peptide)
peptide: [Aib]VSEIQL[Nle]HELGKHLKS[β3hI]ERVE[1Nal]LRKLLQEVHEK-NH2
B5: [Aib^1, Nle^8,18, Ser^10, Lys^16, β-Ala^17, 1-Nal^23, Leu^27, Arg^30, Glu^33, Glu^34] hPTH (1-34)-NH2 (peptide)
peptide: [Aib]VSEIQL[Nle]HSLGKHLK[βAla][Nle]ERVE[1Nal]LRKLLQRVHEE-NH2

What was measured:
human PTH-1 receptor = target: T1, human PTH-1 receptor (Homo sapiens, UniProt Q03431); test: Reporter gene assay (CRE-luciferase) for agonist activity in transiently transfected HEK-293 cells; type: cell-based
T1 construct: expressed in transfected cells; host or cells: HEK-293
T1 sequence (Q03431 27-593): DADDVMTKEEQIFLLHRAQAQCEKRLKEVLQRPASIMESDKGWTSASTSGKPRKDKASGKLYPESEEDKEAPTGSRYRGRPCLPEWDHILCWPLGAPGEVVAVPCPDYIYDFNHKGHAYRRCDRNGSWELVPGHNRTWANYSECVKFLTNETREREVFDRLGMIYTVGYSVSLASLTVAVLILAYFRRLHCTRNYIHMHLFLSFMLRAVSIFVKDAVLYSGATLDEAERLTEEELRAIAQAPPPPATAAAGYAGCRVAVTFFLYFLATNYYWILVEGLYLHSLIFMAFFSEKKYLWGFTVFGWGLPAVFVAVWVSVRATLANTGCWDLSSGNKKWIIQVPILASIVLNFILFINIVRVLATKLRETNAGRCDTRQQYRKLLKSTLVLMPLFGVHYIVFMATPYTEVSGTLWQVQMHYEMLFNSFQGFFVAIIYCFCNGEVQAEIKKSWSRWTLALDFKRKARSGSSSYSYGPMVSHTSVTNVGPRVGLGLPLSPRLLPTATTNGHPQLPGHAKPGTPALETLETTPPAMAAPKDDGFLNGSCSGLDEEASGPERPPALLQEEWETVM
Method in brief: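 HEK-293 cells transiently transfected with SV40-driven human PTH-1 receptor and CRE-luciferase reporter, exposed to serial compound dilutions for 4-5 h, then lysed for luciferase readout; efficacy and EC50 by non-linear regression, PTH (1-34) as internal control, n≥3. Selectivity measured in analogous human PTH-2 receptor luciferase reporter assays.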

[1] = target: human parathyroid hormone receptor 2 (human, UniProt P49190); test: cell-based or functional assay
[2] = target: human parathyroid hormone receptor 1 (human, UniProt Q03431); test: cell-based or functional assay
[3] = Table 4 comparison data, ratio of EC50 values

Row | Molecule | Selectivity hPTHR-2/hPTHR-1 (human PTH-1 receptor; [3]) | hPTHR-2 EC50 (nM), luciferase reporter gene assay [1] | hPTHR-1 EC50 (nM), CRE-luciferase reporter gene assay [2] | further results
1 | CCCC[C@H](NC(=O)[C@H](CC(C)C)NC(=O)[C@H](CCC(N)=O)NC(=O)[C@@H](NC(=O)[C@H](CCC(=O)O)NC(=O)[C@H](CO)NC(=O)[C@@H](NC(=O)C(C)(C)N)C(C)C)[C@@H](C)CC)C(=O)N[C@@H](Cc1c[nH]cn1)C(=O)N[C@@H](CCC(=O)O)C(=O)N[C@@H](CC(C)C)C(=O)NCC(=O)N[C@@H](CCCCN)C(=O)N[C@@H](Cc1c[nH]cn1)C(=O)N[C@@H](CC(C)C)C(=O)N[C@@H](CCCCN)C(=O)N[C@@H](CO)C(=O)N[C@H](CC(=O)N[C@@H](CCC(=O)O)C(=O)N[C@@H](CCCNC(=N)N)C(=O)N[C@H](C(=O)N[C@@H](CCC(=O)O)C(=O)N[C@@H](Cc1cccc2ccccc12)C(=O)N[C@@H](CC(C)C)C(=O)N[C@@H](CCCNC(=N)N)C(=O)N[C@@H](CCCCN)C(=O)N[C@@H](CC(C)C)C(=O)N[C@@H](CC(C)C)C(=O)N[C@@H](CCC(N)=O)C(=O)N[C@@H](CCC(=O)O)C(=O)N[C@H](C(=O)N[C@@H](Cc1c[nH]cn1)C(=O)N[C@@H](CCC(=O)O)C(=O)N[C@@H](CCCCN)C(N)=O)C(C)C)C(C)C)[C@@H](C)CC [SEQ ID NO: 50, [Aib^1, Nle^8, Glu^10, Lys^16, β-hIle^18,1-Nal^23, Leu^27, Glu^30, Glu^33, Lys^34] hPTH(1-34)-NH2] (H-[Aib]VSEIQL[Nle]HELGKHLKS[β3hI]ERVE[1Nal]LRKLLQEVHEK-NH2; N-terminus assumed) | – | – | – | EC50 (human PTH-1 receptor): 0.04 nM; hPTHR-2/hPTHR-1 (human PTH-1 receptor; Table 3, ratio of EC50 values, selectivity for hPTH-1 receptor over hPTH-2 receptor): 22
2 | CCCC[C@H](NC(=O)[C@H](CC(C)C)NC(=O)[C@H](CCC(N)=O)NC(=O)[C@@H](NC(=O)[C@H](CCC(=O)O)NC(=O)[C@H](CO)NC(=O)[C@@H](NC(=O)[C@@H](N)CO)C(C)C)[C@@H](C)CC)C(=O)N[C@@H](Cc1c[nH]cn1)C(=O)N[C@@H](CC(N)=O)C(=O)N[C@@H](CC(C)C)C(=O)NCC(=O)N[C@@H](CCCCN)C(=O)N[C@@H](Cc1c[nH]cn1)C(=O)N[C@@H](CC(C)C)C(=O)N[C@@H](CC(N)=O)C(=O)N[C@@H](CO)C(=O)N[C@@H](C)CC(=O)N[C@@H](CCC(=O)O)C(=O)N[C@@H](CCCNC(=N)N)C(=O)N[C@H](C(=O)N[C@@H](CCC(=O)O)C(=O)N[C@@H](Cc1ccc2ccccc2c1)C(=O)N[C@@H](CC(C)C)C(=O)N[C@@H](CCCNC(=N)N)C(=O)N[C@@H](CCCCN)C(=O)N[C@@H](CCCCN)C(=O)N[C@@H](CC(C)C)C(=O)N[C@@H](CCC(N)=O)C(=O)N[C@@H](CC(=O)O)C(=O)N[C@H](C(=O)N[C@@H](Cc1c[nH]cn1)C(=O)N[C@@H](CC(N)=O)C(=O)N[C@@H](Cc1ccccc1)C(N)=O)C(C)C)C(C)C [SEQ ID NO: 52, [Nle^8, β-hAla^18,2-Nal^23] hPTH (1-34)-NH2] (H-SVSEIQL[Nle]HNLGKHLNS[β3hA]ERVE[2Nal]LRKKLQDVHNF-NH2) | 215 | – | – | –
3 | CCCC[C@H](NC(=O)[C@H](CC(C)C)NC(=O)[C@H](CCC(N)=O)NC(=O)[C@@H](NC(=O)[C@H](CCC(=O)O)NC(=O)[C@H](CO)NC(=O)[C@@H](NC(=O)[C@@H](N)CO)C(C)C)[C@@H](C)CC)C(=O)N[C@@H](Cc1c[nH]cn1)C(=O)N[C@@H](CC(N)=O)C(=O)N[C@@H](CC(C)C)C(=O)NCC(=O)N[C@@H](CCCCN)C(=O)N[C@@H](Cc1c[nH]cn1)C(=O)N[C@@H](CC(C)C)C(=O)N[C@@H](CC(N)=O)C(=O)N[C@@H](CO)C(=O)N[C@H](CC(=O)N[C@@H](CCC(=O)O)C(=O)N[C@@H](CCCNC(=N)N)C(=O)N[C@H](C(=O)N[C@@H](CCC(=O)O)C(=O)N[C@@H](Cc1ccc2ccccc2c1)C(=O)N[C@@H](CC(C)C)C(=O)N[C@@H](CCCNC(=N)N)C(=O)N[C@@H](CCCCN)C(=O)N[C@@H](CCCCN)C(=O)N[C@@H](CC(C)C)C(=O)N[C@@H](CCC(N)=O)C(=O)N[C@@H](CC(=O)O)C(=O)N[C@H](C(=O)N[C@@H](Cc1c[nH]cn1)C(=O)N[C@@H](CC(N)=O)C(=O)N[C@@H](Cc1ccccc1)C(N)=O)C(C)C)C(C)C)[C@@H](C)CC [SEQ ID NO: 53, [Nle^8, β-hIle^18,2-Nal^23] hPTH (1-34)-NH2] (H-SVSEIQL[Nle]HNLGKHLNS[β3hI]ERVE[2Nal]LRKKLQDVHNF-NH2) | 170 | – | – | EC50 (human PTH-1 receptor; Table 4 comparison data, HEK-293 cells, CRE-luciferase, read-out: hPTHR-1 EC50): 0.25 nM
4 | CCCC[C@H](NC(=O)[C@H](CC(C)C)NC(=O)[C@H](CCC(N)=O)NC(=O)[C@@H](NC(=O)[C@H](CCC(=O)O)NC(=O)[C@H](CO)NC(=O)[C@@H](NC(=O)[C@@H](N)CO)C(C)C)[C@@H](C)CC)C(=O)N[C@@H](Cc1c[nH]cn1)C(=O)N[C@@H](CC(N)=O)C(=O)N[C@@H](CC(C)C)C(=O)NCC(=O)N[C@@H](CCCCN)C(=O)N[C@@H](Cc1c[nH]cn1)C(=O)N[C@@H](CC(C)C)C(=O)N[C@@H](CC(N)=O)C(=O)N[C@@H](CO)C(=O)N[C@@H](CCCNC(=N)N)CC(=O)N[C@@H](CCC(=O)O)C(=O)N[C@@H](CCCNC(=N)N)C(=O)N[C@H](C(=O)N[C@@H](CCC(=O)O)C(=O)N[C@@H](Cc1ccc2ccccc2c1)C(=O)N[C@@H](CC(C)C)C(=O)N[C@@H](CCCNC(=N)N)C(=O)N[C@@H](CCCCN)C(=O)N[C@@H](CCCCN)C(=O)N[C@@H](CC(C)C)C(=O)N[C@@H](CCC(N)=O)C(=O)N[C@@H](CC(=O)O)C(=O)N[C@H](C(=O)N[C@@H](Cc1c[nH]cn1)C(=O)N[C@@H](CC(N)=O)C(=O)N[C@@H](Cc1ccccc1)C(N)=O)C(C)C)C(C)C [SEQ ID NO: 54, [Nle^8, β-hArg^18,2-Nal^23] hPTH (1-34)-NH2] (H-SVSEIQL[Nle]HNLGKHLNS[β3hR]ERVE[2Nal]LRKKLQDVHNF-NH2) | 147 | – | – | –
5 | B1 | – | 32 nM | 0.09 nM | –
6 | B2 | – | 18 nM | 0.05 nM | –
7 | B3 | – | 11 nM | 0.21 nM | –
8 | B4 | – | 1 nM | 0.04 nM | –
9 | B5 | – | 7 nM | 0.03 nM | –
